From PMC6420115

Legend:
[1] = target: full length PfCSP (NF54 strain) (Plasmodium falciparum (NF54 strain)) (UniProt P19597)
minimal NANP3 peptide = assay: SPR; details: parent: est. 2.1e-6 M; read off a plot

Sequence of full length PfCSP (NF54 strain) (Plasmodium falciparum (NF54 strain)) (P19597 19-374): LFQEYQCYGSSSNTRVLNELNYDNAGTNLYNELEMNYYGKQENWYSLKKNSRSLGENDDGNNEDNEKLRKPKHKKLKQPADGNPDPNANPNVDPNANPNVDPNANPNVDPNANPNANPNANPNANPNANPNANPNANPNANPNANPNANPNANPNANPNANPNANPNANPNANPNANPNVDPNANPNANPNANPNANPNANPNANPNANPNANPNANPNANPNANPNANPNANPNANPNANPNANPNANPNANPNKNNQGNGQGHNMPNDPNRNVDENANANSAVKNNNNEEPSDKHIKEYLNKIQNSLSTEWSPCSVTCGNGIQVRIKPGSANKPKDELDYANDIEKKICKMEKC

Substance	other [1] [µg/mL]	Kd (minimal NANP3 peptide) [nM]
1210_H.N31_Srev IgG (antibody)	0.14	
2163 IgG (germline antibody 2163) H:N56K		2600
2163 IgG (germline antibody 2163) H:N56K; K:S93N		2600
2163 IgG (germline antibody 2163) H:S31N		1500
2163 IgG (germline antibody 2163) H:V50I		130
2163_KN IgG (2163_H.N56_Kmut_K.S93_Nmut) (antibody)	0.21	

Second part, led by results:

other [1] [µg/mL]	Substance	Kd (minimal NANP3 peptide) [nM]
0.14	1210_H.K56_Nrev IgG (antibody)	
0.16	1210_H.V50_Imut IgG (antibody)	
0.17	1210_NS IgG (1210_H.K56_Nrev_K.N93_Srev) (antibody)	
0.2	2163 IgG (germline antibody 2163)	
0.12	2163_H.S31_Nmut IgG (antibody)	
0.16	2163_H.V50_Imut IgG (antibody)	
